Reference: patent US20250340603A1, “A METHOD FOR MODULATING PLANT ADAPTATION TRAITS” (CRAG (Centre de Recerca en Agrigenòmica), priority 2021, published 2025)

Experiments:
[1] = tested on: WT (Col-0) and brl3-2 mutant seedlings; assay: Bikinin sensitivity assay (hypocotyl elongation); type: in vivo, Arabidopsis thaliana; settings: 6 d, LD
Procedure: Chemicals used include; 1 μM BRZ220 (Gift from T. Nakano, RIKEN, Japan) or 50 μM Bikinin (200980, Sigma-Aldrich) for 6-d in control (long days, 22° C.) or high temperature (long days, 28° C.) conditions. Hypocotyl length were measured using the Image J software (v.1.48v) (https-/imagej.nih.gov/ij/).
For hypocotyl elongation analysis, seedlings were grown in horizontally placed 0.5MS− media plates in controlled growth conditions (Aralab 600; long days 16:8h day/night cycle 60% relative humidity and 50-70 μmol m^−2 s^−1 of cool-white fluorescent light) at 22° C. or 28° C. temperature for 5-7d. Plates were photographed and hypocotyl length were measured using the ImageJ software (v.1.48v) (https:/imagej.nih.gov/ij/). For root growth analysis, seedlings were grown in vertically placed 0.5MS− media plates in controlled growth conditions (Aralab 600; long days 16:8h day/night cycle; 22° C.). MyROOT software (Betegón-Putzé et al., 2019) was used to compare root growth of plants. Lateral roots were manually counted under a stereozoom microscope in 9-d-old seedlings.
Seedlings were grown in horizontally placed 0.5MS− media supplemented with or without 50 μM Bikinin (200980, Sigma-Aldrich) for 6-d in control (long days, 22° C.) or high temperature (long days, 28° C.) conditions. Hypocotyl length were measured using the Image J software (v.1.48v) (https://imagej.nih.gov/ii/).

[2] = target: T1, KIN7 kinase domain, GST- or MBP-tagged, from E. coli
T1 chain: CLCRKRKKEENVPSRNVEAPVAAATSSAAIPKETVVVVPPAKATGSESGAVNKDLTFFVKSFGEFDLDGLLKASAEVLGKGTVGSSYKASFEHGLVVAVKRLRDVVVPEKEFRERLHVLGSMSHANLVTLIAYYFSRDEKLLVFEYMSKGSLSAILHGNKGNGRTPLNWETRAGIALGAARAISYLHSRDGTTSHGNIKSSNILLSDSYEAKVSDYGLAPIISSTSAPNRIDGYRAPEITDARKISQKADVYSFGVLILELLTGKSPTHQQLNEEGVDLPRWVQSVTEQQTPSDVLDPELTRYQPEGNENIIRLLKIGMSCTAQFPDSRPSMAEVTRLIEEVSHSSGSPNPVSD

[3] = target: T2, BRL3T1025A, phospho-dead version of the BRL3 kinase domain
T2 chain: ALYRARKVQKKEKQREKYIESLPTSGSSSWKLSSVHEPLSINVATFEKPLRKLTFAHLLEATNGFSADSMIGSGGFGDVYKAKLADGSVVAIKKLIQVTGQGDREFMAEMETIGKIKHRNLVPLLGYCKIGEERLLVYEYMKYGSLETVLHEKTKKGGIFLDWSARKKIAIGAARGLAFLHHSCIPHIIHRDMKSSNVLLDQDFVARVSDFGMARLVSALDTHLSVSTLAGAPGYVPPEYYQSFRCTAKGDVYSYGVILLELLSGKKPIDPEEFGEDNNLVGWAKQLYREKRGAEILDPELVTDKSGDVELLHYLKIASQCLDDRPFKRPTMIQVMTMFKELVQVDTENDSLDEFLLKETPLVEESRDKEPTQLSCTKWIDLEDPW

[4] = target: T3, BRI1 (BRASSINOSTEROID … 1), BiFC negative control (Arabidopsis, UniProt O22476 24-1196); assay: BiFC (split YFP) in Nicotiana benthamiana leaves, confocal microscopy
T3 construct: whole, on cells; not shown: the construct of this control is not described
T3 sequence (looked up): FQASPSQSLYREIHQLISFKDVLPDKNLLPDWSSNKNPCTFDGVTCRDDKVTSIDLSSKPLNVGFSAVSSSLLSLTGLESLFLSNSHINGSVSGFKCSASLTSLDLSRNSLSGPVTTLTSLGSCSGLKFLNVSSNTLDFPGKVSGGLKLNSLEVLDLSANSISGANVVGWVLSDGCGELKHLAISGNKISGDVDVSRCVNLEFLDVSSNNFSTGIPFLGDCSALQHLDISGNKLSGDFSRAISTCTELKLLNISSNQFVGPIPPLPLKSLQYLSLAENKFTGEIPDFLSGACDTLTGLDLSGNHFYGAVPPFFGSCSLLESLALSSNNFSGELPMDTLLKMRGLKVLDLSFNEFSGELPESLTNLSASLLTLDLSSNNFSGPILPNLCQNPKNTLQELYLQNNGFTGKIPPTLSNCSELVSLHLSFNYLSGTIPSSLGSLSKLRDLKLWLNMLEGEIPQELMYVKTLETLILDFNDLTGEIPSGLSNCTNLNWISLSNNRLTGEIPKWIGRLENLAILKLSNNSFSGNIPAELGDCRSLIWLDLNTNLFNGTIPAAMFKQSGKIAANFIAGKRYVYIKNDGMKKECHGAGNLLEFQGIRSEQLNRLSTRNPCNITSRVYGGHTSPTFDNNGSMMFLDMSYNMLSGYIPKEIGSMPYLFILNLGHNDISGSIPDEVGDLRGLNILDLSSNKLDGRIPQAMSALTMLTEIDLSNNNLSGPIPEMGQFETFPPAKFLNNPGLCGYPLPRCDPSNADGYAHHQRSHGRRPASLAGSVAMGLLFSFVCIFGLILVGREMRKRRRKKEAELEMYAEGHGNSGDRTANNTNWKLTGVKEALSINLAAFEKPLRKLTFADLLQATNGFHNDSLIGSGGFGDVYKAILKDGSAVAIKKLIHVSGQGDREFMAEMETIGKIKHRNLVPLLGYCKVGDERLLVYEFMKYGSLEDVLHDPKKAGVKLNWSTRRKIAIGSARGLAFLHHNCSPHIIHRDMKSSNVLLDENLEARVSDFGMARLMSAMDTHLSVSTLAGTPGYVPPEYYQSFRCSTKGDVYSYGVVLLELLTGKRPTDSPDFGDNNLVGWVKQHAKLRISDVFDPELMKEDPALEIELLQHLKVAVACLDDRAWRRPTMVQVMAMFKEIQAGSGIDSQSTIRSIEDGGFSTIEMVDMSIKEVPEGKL

## O=C(O)CCC(=O)Nc1ccc(Br)cn1 [Bikinin]
[1]; 50 μM Bikinin in media, WT and brl3-2 mutant, control (22° C.) and high temperature (28° C.)
  hypocotyl elongation: promote hypocotyl elongation
[1]; 50 μM Bikinin, brl3-2 mutant, 28° C.
  rescue of brl3 conditional phenotypes (hypocotyl elongation) on elevated temperature: rescued brl3 conditional phenotypes

B1: BRL3 kinase domain, GST- or MBP-tagged, from E. coli (protein)
chain: ALYRARKVQKKEKQREKYIESLPTSGSSSWKLSSVHEPLSINVATFEKPLRKLTFAHLLEATNGFSADSMIGSGGFGDVYKAKLADGSVVAIKKLIQVTGQGDREFMAEMETIGKIKHRNLVPLLGYCKIGEERLLVYEYMKYGSLETVLHEKTKKGGIFLDWSARKKIAIGAARGLAFLHHSCIPHIIHRDMKSSNVLLDQDFVARVSDFGMARLVSALDTHLSVSTLAGTPGYVPPEYYQSFRCTAKGDVYSYGVILLELLSGKKPIDPEEFGEDNNLVGWAKQLYREKRGAEILDPELVTDKSGDVELLHYLKIASQCLDDRPFKRPTMIQVMTMFKELVQVDTENDSLDEFLLKETPLVEESRDKEPTQLSCTKWIDLEDPW
[2]
  incorporation of 32P into KIN7 kinase (in vitro phosphorylation, autoradiography): The image show and autoradiography revealing the incorporation of 32P into KIN7 kinase when incubated with BRL3

B2: BRL3T1025A, phospho-dead version of the BRL3 kinase domain (protein)
chain: ALYRARKVQKKEKQREKYIESLPTSGSSSWKLSSVHEPLSINVATFEKPLRKLTFAHLLEATNGFSADSMIGSGGFGDVYKAKLADGSVVAIKKLIQVTGQGDREFMAEMETIGKIKHRNLVPLLGYCKIGEERLLVYEYMKYGSLETVLHEKTKKGGIFLDWSARKKIAIGAARGLAFLHHSCIPHIIHRDMKSSNVLLDQDFVARVSDFGMARLVSALDTHLSVSTLAGAPGYVPPEYYQSFRCTAKGDVYSYGVILLELLSGKKPIDPEEFGEDNNLVGWAKQLYREKRGAEILDPELVTDKSGDVELLHYLKIASQCLDDRPFKRPTMIQVMTMFKELVQVDTENDSLDEFLLKETPLVEESRDKEPTQLSCTKWIDLEDPW
[2]
  incorporation of 32P into KIN7 kinase (in vitro phosphorylation, autoradiography): The phosphorylation in KIN7 kinase domain is lost when incubated with a phospho-dead version of BRL3, the BRL3T1025A

B3: KIN7 kinase domain, GST- or MBP-tagged, from E. coli (protein)
chain: CLCRKRKKEENVPSRNVEAPVAAATSSAAIPKETVVVVPPAKATGSESGAVNKDLTFFVKSFGEFDLDGLLKASAEVLGKGTVGSSYKASFEHGLVVAVKRLRDVVVPEKEFRERLHVLGSMSHANLVTLIAYYFSRDEKLLVFEYMSKGSLSAILHGNKGNGRTPLNWETRAGIALGAARAISYLHSRDGTTSHGNIKSSNILLSDSYEAKVSDYGLAPIISSTSAPNRIDGYRAPEITDARKISQKADVYSFGVLILELLTGKSPTHQQLNEEGVDLPRWVQSVTEQQTPSDVLDPELTRYQPEGNENIIRLLKIGMSCTAQFPDSRPSMAEVTRLIEEVSHSSGSPNPVSD
[3]
  incorporation of 32P into BRL3 kinase (in vitro phosphorylation, autoradiography): KIN7 is not able to phosphorylate BRL3 domains given that the BRL3 phosphorylation pattern is lost when KIN7 is incubated with the phospho-dead version of BRL3 kinase

B4: BRL3 (BRASSINOSTEROID RECEPTOR LIKE 3), full length, fused to a half of YFP (BiFC construct) (receptor)
chain: RRLLSDDVNDTALLTAFKQTSIKSDPTNFLGNWRYGSGRDPCTWRGVSCSSDGRVIGLDLRNGGLTGTLNLNNLTALSNLRSLYLQGNNFSSGDSSSSSGCSLEVLDLSSNSLTDSSIVDYVFSTCLNLVSVNFSHNKLAGKLKSSPSASNKRITTVDLSNNRFSDEIPETFIADFPNSLKHLDLSGNNVTGDFSRLSFGLCENLTVFSLSQNSISGDRFPVSLSNCKLLETLNLSRNSLIGKIPGDDYWGNFQNLRQLSLAHNLYSGEIPPELSLLCRTLEVLDLSGNSLTGQLPQSFTSCGSLQSLNLGNNKLSGDFLSTVVSKLSRITNLYLPFNNISGSVPISLTNCSNLRVLDLSSNEFTGEVPSGFCSLQSSSVLEKLLIANNYLSGTVPVELGKCKSLKTIDLSFNALTGLIPKEIWTLPKLSDLVMWANNLTGGIPESICVDGGNLETLILNNNLLTGSLPESISKCTNMLWISLSSNLLTGEIPVGIGKLEKLAILQLGNNSLTGNIPSELGNCKNLIWLDLNSNNLTGNLPGELASQAGLVMPGSVSGKQFAFVRNEGGTDCRGAGGLVEFEGIRAERLEHFPMVHSCPKTRIYSGMTMYMFSSNGSMIYLDLSYNAVSGSIPLGYGAMGYLQVLNLGHNLLTGTIPDSFGGLKAIGVLDLSHNDLQGFLPGSLGGLSFLSDLDVSNNNLTGPIPFGGQLTTFPLTRYANNSGLCGVPLPPCSSGSRPTRSHAHPKKQSIATGMSAGIVFSFMCIVMLIMALYRARKVQKKEKQREKYIESLPTSGSSSWKLSSVHEPLSINVATFEKPLRKLTFAHLLEATNGFSADSMIGSGGFGDVYKAKLADGSVVAIKKLIQVTGQGDREFMAEMETIGKIKHRNLVPLLGYCKIGEERLLVYEYMKYGSLETVLHEKTKKGGIFLDWSARKKIAIGAARGLAFLHHSCIPHIIHRDMKSSNVLLDQDFVARVSDFGMARLVSALDTHLSVSTLAGTPGYVPPEYYQSFRCTAKGDVYSYGVILLELLSGKKPIDPEEFGEDNNLVGWAKQLYREKRGAEILDPELVTDKSGDVELLHYLKIASQCLDDRPFKRPTMIQVMTMFKELVQVDTENDSLDEFLLKETPLVEESRDKEPTQLSCTKWIDLEDPW
notes: also called BRL3 receptor; AT3G13380; not shown: half of YFP (YN or YC, both directions tested) from vectors pGTQL1211-YN / pGTQL1221-YC
[4]
  binding result: no binding
